Columns and labels:
[1] = test system: coculture of antigen presenting cells and CD4 T cell clones (“OT-II cells”); assay: IFNγ and IL-17 in supernatant of coculture of antigen presenting cells and OT-II CD4 T cell clones; format: cell-based; settings: D1 in particles of Compound 113 with D2 Compound 166, with or without D3 Compound 4 (Table 10)
Description: The cell culture supernatant was assessed for the cytokines IFNγ and IL-17 to assess for the proliferation of Th1- and Th17-type CD4 T cells, respectively (FIG. 11).

[2] = Turbidity (OD 490 nm) of particle formulations; format: physicochemical; settings: Table 15; no 2nd amphiphile
Description: It was unknown how the surface group (SG) would impact the tolerability of amphiphiles of formula S-B-H-D carrying an immunostimulant. Therefore, to evaluate the impact of surface group composition on tolerability, amphiphiles of varying SG and drug molecule composition were prepared and evaluated in mice (Table 15 and FIG. 14).

[3] = test system: coculture of antigen presenting cells and CD4 T cell clones (“OT-II cells”); assay: CD4 T cell induction in coculture of antigen presenting cells and OT-II CD4 T cell clones; format: cell-based; settings: D1 in particles of Compound 113 with D2 Compound 166 and D3 MDP, TDB, MPL, LPS or Compound 4 (Table 9, FIG. 10)
[4] = Solubility and loading of mTOR inhibitors in nanoparticle micelles of amphiphiles S-B-[U]-H; format: physicochemical; settings: admixed with amphiphile Compound 113
[5] = test system: T1, Ac-A′SK(Ac)SB-AMC (Compound 18)
T1 sequence: XSKSX

[6] = test system: T2, Ac-A′SK(Ac)SnL-AMC (Compound 24)
T2 sequence: XSKSX

[7] = test system: T3, Ac-A′SK(Ac)VB-AMC (Compound 16)
T3 sequence: XSKVX

[8] = test system: T4, Ac-A′SK(Ac)VnL-AMC (Compound 22)
T4 sequence: XSKVX

[9] = test system: T5, Ac-A′SKSB-AMC (Compound 19)
T5 sequence: XSKSX

[10] = test system: T6, Ac-A′SKSnL-AMC (Compound 25)
T6 sequence: XSKSX

[11] = test system: T7, Ac-A′SKVB-AMC (Compound 17)
T7 sequence: XSKVX

[12] = test system: T8, Ac-A′SKVnL-AMC (Compound 23)
T8 sequence: XSKVX

[13] = test system: T9, Ac-A′SPVB-AMC (Compound 15)
T9 sequence: XSPVX

[14] = test system: T10, Ac-A′SPVnL-AMC (Compound 21)
T10 sequence: XSPVX

[15] = test system: T11, Ac-A′VB-AMC (Compound 14)
T11 sequence: XVX

[16] = test system: T12, Ac-A′VnL-AMC (Compound 20)
T12 sequence: XVX

Q: For `COc1ccc(-c2ccc3c(N4CCOC[C@@H]4C)nc(N4CCOC[C@@H]4C)nc3n2)cc1CO` [AZD8055], which “suppression of Th1-type CD4 T cell response (IFNγ)” value (from here on “suppression … (IFNγ)”) [1] is on record?
A: substantially improved T cell response suppression as compared with Rapa, CC223 and OSI-027

Q: For `CCOCc1nc2c(N)nc3ccccc3c2n1CC(C)(C)O` [Compound R848], which Turbidity [2] is on record?
A: 0.039

Q: For `CC(C)n1nc(-c2ccc3oc(N)nc3c2)c2c(N)ncnc21` [INK-128], which “suppression … (IFNγ)” value [1] is on record?
A: substantially improved T cell response suppression as compared with Rapa, CC223 and OSI-027

Q: What does the source list for `CCC(=O)N1CCN(c2ccc(-n3c(=O)ccc4cnc5ccc(-c6cnc7ccccc7c6)cc5c43)cc2C(F)(F)F)CC1` [Torin 1]?
A: suppression of T cell responses against D2 [3]: greater T cell suppression as compared with Rapamycin; suppression of Th1-type CD4 T cell response (IFNγ) [1]: substantially improved T cell response suppression as compared with Rapa, CC223 and OSI-027; solubility in DMSO and aqueous buffer [4]: markedly improved the solubility

Q: Which “suppression … (IFNγ)” value [1] does the source give for `CNC(=O)Nc1ccc(-c2nc(N3CC4CCC(C3)O4)c3cnn(C4CCC5(CC4)OCCO5)c3n2)cc1` [WYE132] here?
A: substantially improved T cell response suppression as compared with Rapa, CC223 and OSI-027

Q: What does the source list for Cathepsin B (Sino Biological)?
A: percent of peptide-AMC that is cleaved [5]: norleucine (nL) and alpha-amino butyric (B or aBut) are tolerated at the P1 position; percent of peptide-AMC that is cleaved [6]: norleucine (nL) and alpha-amino butyric (B or aBut) are tolerated at the P1 position; percent of peptide-AMC that is cleaved [7]: norleucine (nL) and alpha-amino butyric (B or aBut) are tolerated at the P1 position; percent of peptide-AMC that is cleaved [8]: norleucine (nL) and alpha-amino butyric (B or aBut) are tolerated at the P1 position; percent of peptide-AMC that is cleaved [9]: norleucine (nL) and alpha-amino butyric (B or aBut) are tolerated at the P1 position; percent of peptide-AMC that is cleaved [10]: norleucine (nL) and alpha-amino butyric (B or aBut) are tolerated at the P1 position; percent of peptide-AMC that is cleaved [11]: norleucine (nL) and alpha-amino butyric (B or aBut) are tolerated at the P1 position; percent of peptide-AMC that is cleaved [12]: norleucine (nL) and alpha-amino butyric (B or aBut) are tolerated at the P1 position; percent of peptide-AMC that is cleaved [13]: norleucine (nL) and alpha-amino butyric (B or aBut) are tolerated at the P1 position; percent of peptide-AMC that is cleaved [14]: norleucine (nL) and alpha-amino butyric (B or aBut) are tolerated at the P1 position; percent of peptide-AMC that is cleaved [15]: norleucine (nL) and alpha-amino butyric (B or aBut) are tolerated at the P1 position; percent of peptide-AMC that is cleaved [16]: norleucine (nL) and alpha-amino butyric (B or aBut) are tolerated at the P1 position

From patent publication US20240382614A1, “Self-Assembling Nanoparticles Based On Amphiphilic Peptides for Drug Delivery Applications” (Barinthus Biotherapeutics North America, Inc., priority 2021, published 2024)
